Here are results for 28 molecules from patent US20250011363A1, “OPTIMIZED SHORTENED PEPTIDE THAT BINDS TO ACETYLCHOLINE RECEPTOR, AND USE THEREOF” (SKINMED CO., LTD., priority 2021, published 2025).

This assay has as its target acetylcholine receptor. Briefly: SPR, AchR immobilised on CM5 chip, peptide 10 uM.

The molecule RMPEKR [6mer-2-654] displayed a Binding affinity (RU) of 20 RU.
KPMDRR [6mer-2-666] registered a Binding affinity (RU) of 25 RU.
As for RMKAKK [6mer-2-661], the Binding affinity (RU) amounted to 29 RU.
Consider RHKDRK [6mer-2-660], for which the Binding affinity (RU) is 16 RU.
With KIDDRK [6mer-2-672], the Binding affinity (RU) is 20 RU.
Molecule RKWHKR [6mer-2-670] yielded a Binding affinity (RU) of 33 RU.
For RDWIRR [6mer-2-671], the Binding affinity (RU) came to 27 RU.
Turning to KIPNKR [6mer-2-659], the Binding affinity (RU) came out at 22 RU.
As for RFKARK [6mer-2-650], the Binding affinity (RU) worked out at 18 RU.
The result for KCTAKK [6mer-2-676] reads 14 RU.
In turn, KFAGRR [6mer-2-663] had a Binding affinity (RU) of 24 RU.
KFDVRK [6mer-2-649] displayed a Binding affinity (RU) of 31 RU.
The molecule RTTMRK [6mer-2-652] came in with a Binding affinity (RU) of 16 RU.
As for KCAERR [6mer-2-665], the figure is 18 RU; as for RKHERK [6mer-2-657], 32 RU.
The molecule KADPRR [6mer-2-656] showed a Binding affinity (RU) of 11 RU.
As for KCCWKK [6mer-2-664], the figure is 11 RU.
Molecule KNMWRK [6mer-2-669] gave a Binding affinity (RU) of 15 RU.
The molecule KKWERK [6mer-2-674] registered a Binding affinity (RU) of 26 RU.
In turn, KIWFRR [6mer-2-655] gave a Binding affinity (RU) of 31 RU.
Consider RFCGRK [6mer-2-673], for which the Binding affinity (RU) was found to be 23 RU.
As for KHDMRR [6mer-2-667], the figure is 25 RU.
In the case of RMKWRK [6mer-2-675], the Binding affinity (RU) turned out to be 14 RU.
RFCNKK [6mer-2-668]: the Binding affinity (RU) worked out at 13 RU.
In the case of RYWVKK [6mer-2-658], the Binding affinity (RU) worked out at 23 RU.
For KAHPKK [6mer-2-662], the Binding affinity (RU) amounted to 11 RU.
As for KNADRR [6mer-2-651], the Binding affinity (RU) was 21 RU.
For KIEMKR [6mer-2-653], the Binding affinity (RU) amounted to 20 RU.
